Results: the supplement of paper PMC6379048

Key:
Assay in all cases: Kd (EC50 corrected by depletion factor)
MSI2 = MSI2 (UniProt Q96DH6)
Outline: (§1)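 To obtain EC50, data were fitted with a four-parameter log-logistic model; Kd was then EC50 multiplied by a protein-dependent depletion factor. Beforehand, free RNA oligos (0 nM to 30 μM) were pre-incubated with HEK293-FT lysate (2.5 mg protein/well) for 1 h at 4°C. The lysate then spent 30 min at 4°C with the same 5′-amino-C6 oligos coupled to NHS-Sepharose beads, and bound proteins were quantified by label-free LC-MS/MS, normalised to the control.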

PABPC1 = PABPC1 (UniProt P11940)
Outline: as §1

ELAVL1 = ELAVL1 (UniProt Q15717)
Outline: as §1

SLIRP = SLIRP (UniProt Q9GZT3)
Outline: as §1

MEX3A = target: T1, MEX3A (UniProt A1L020)
T1 sequence: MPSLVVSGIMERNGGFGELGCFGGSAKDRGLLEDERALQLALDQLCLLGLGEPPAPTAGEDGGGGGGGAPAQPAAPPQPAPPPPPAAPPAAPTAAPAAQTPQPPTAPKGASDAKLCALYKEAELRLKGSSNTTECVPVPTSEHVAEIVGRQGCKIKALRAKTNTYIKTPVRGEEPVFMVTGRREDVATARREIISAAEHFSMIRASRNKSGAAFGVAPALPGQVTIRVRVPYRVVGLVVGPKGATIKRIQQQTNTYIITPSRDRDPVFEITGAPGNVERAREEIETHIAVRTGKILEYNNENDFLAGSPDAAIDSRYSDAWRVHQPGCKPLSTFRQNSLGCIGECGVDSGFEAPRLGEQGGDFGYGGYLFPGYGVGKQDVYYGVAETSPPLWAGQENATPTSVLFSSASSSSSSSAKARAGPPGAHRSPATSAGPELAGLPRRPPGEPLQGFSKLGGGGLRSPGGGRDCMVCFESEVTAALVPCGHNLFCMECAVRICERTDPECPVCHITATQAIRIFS
Outline: as §1

XAB2 = target: T2, XAB2 (UniProt Q9HCS7)
T2 sequence: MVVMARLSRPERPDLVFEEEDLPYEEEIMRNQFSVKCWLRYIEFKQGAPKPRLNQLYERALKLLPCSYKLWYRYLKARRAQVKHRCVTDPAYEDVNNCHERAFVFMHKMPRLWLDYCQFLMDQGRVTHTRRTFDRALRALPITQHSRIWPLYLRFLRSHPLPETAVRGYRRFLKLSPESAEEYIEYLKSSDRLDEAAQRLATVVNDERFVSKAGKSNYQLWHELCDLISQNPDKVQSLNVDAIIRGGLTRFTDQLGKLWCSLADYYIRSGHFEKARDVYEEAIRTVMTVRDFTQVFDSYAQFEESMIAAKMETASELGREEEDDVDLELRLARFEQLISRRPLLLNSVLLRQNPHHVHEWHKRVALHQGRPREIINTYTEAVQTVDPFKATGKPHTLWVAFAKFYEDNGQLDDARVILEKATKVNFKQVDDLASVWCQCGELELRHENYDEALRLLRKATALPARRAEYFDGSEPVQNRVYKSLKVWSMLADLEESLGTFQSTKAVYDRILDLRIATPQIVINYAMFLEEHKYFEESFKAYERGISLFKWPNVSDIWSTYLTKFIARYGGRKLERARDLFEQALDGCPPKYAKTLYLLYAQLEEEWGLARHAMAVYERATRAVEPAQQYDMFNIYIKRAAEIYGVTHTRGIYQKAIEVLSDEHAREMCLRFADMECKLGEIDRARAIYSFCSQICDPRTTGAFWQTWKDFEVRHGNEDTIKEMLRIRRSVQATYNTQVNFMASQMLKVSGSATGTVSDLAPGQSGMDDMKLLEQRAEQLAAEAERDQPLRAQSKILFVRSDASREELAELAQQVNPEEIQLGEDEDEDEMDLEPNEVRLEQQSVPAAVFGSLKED
Outline: as §1

KHSRP = target: T3, KHSRP (UniProt Q92945)
T3 sequence: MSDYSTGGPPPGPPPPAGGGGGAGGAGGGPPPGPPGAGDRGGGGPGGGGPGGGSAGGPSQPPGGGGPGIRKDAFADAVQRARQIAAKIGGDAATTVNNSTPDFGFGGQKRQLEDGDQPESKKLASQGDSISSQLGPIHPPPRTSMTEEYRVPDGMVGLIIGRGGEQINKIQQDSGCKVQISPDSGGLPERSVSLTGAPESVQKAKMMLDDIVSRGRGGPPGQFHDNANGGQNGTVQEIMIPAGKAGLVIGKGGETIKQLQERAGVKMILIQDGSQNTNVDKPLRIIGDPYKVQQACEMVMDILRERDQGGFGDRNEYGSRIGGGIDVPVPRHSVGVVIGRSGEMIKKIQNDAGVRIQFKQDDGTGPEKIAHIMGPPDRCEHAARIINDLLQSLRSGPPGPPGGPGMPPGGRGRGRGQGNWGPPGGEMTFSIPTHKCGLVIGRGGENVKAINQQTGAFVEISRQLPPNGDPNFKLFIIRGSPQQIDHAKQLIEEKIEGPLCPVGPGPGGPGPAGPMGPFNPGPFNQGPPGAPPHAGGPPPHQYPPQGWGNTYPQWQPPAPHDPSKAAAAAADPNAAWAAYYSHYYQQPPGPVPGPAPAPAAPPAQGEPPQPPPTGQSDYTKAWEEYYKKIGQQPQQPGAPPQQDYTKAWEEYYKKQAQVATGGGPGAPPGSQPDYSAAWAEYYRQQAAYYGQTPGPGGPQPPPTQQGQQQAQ
Outline: as §1

ELAVL2 = ELAVL2 (UniProt Q12926)
Outline: as §1

Sequence of PABPC1 (P11940 whole entry): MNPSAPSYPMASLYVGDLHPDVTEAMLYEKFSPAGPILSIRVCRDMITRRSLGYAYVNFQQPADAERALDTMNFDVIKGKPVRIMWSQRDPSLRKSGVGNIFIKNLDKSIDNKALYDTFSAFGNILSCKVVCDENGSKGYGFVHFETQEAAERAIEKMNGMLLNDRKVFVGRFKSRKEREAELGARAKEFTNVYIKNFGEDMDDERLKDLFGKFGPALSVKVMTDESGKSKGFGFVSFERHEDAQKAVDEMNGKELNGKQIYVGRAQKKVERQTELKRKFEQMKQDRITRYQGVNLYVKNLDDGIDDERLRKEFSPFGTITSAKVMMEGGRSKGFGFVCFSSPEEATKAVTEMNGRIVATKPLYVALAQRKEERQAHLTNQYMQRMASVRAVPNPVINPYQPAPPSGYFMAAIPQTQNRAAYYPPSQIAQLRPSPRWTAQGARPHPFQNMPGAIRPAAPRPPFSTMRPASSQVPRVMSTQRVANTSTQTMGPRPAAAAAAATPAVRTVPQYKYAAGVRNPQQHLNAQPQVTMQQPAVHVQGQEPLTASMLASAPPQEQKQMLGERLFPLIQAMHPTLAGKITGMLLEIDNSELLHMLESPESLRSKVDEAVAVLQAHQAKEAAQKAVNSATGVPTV
Sequence of ELAVL2 (Q12926 whole entry): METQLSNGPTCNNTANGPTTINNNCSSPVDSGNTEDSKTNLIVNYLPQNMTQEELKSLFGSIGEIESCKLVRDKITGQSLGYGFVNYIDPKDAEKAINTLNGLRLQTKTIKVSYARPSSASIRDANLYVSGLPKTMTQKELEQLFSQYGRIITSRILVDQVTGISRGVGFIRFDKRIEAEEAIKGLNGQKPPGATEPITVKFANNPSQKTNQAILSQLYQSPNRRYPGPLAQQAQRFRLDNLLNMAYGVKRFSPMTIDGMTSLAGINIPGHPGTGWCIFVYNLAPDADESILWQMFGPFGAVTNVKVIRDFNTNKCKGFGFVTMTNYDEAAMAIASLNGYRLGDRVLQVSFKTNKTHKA
Sequence of MSI2 (Q96DH6 whole entry): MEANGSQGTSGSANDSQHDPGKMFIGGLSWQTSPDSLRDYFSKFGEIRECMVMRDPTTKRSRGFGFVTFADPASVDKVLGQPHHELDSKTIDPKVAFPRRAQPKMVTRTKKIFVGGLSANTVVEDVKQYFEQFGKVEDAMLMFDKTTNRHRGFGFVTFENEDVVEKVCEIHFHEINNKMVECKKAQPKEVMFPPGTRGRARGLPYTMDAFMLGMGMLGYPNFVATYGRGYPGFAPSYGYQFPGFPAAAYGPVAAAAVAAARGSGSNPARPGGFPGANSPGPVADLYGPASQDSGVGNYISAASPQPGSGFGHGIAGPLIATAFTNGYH
Sequence of ELAVL1 (Q15717 whole entry): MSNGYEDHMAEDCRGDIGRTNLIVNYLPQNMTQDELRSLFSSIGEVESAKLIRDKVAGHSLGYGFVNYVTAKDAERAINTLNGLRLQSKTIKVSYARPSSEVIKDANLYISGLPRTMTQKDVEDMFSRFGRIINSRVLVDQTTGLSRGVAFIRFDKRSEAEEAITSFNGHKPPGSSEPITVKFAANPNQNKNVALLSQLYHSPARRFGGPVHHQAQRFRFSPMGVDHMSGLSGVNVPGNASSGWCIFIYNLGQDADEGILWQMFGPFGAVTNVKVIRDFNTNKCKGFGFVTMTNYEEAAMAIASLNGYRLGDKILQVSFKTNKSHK

Q: With AAUAAA as the sequence, how does the Kd (MSI2) read?
A: 0.104 µM

Q: And the Kd (PABPC1)?
A: 7.49 µM

Q: What about the Kd (ELAVL1) of the same sequence?
A: 0.44 µM

Q: What about the Kd (SLIRP) of the same sequence?
A: 0.393 µM

Q: And the Kd (MEX3A)?
A: 0.536 µM

Q: What about the Kd (XAB2) of the same sequence?
A: 0.322 µM

Q: And the Kd (KHSRP)?
A: 0.31 µM

Q: And the Kd (ELAVL2)?
A: 8.83 µM

Q: With CUGUCCU as the sequence, how does the Kd (PABPC1) read?
A: 0.0959 µM

Q: What about the Kd (SLIRP) of the same sequence?
A: 0.904 µM

Q: What does the source list for UAUUUAU?
A: Kd (MSI2): 0.475 µM; Kd (ELAVL1): 0.92 µM; Kd (MEX3A): 0.277 µM; Kd (XAB2): 0.286 µM; Kd (KHSRP): 0.928 µM; Kd (ELAVL2): 3.67 µM
